Assay in all cases: FRET or BRET; biosensor lysate at three concentrations (200,000, 400,000 and 800,000 RLU) incubated with VEGF ranges adjusted for each biosensor; Delta eBRET2 ratio against the biosensor without VEGF
For assay [1], the target named is eBRET2 VEGF biosensor Re02 (Rluc8 - VEGF receptor 1 domain 3 - GFP2) (human).
Assay [2] has as its target eBRET2 VEGF biosensor Re06 (Rluc8 - VEGF receptor 2 domain 3 - GFP2) (human).
Assay [3] has as its target eBRET2 VEGF biosensor Re07 (Rluc8 - VEGF receptor 2 domains 2 and 3 - GFP2) (human).
The target in assay [4] is eBRET2 VEGF biosensor Re09 (Rluc8 - VEGF receptor 1 domain 2 - VEGF receptor 2 domain 3 - GFP2) (human).

Chain of eBRET2 VEGF biosensor Re02 (Rluc8 - VEGF receptor 1 domain 3 - GFP2) (human) (P17948 27-758): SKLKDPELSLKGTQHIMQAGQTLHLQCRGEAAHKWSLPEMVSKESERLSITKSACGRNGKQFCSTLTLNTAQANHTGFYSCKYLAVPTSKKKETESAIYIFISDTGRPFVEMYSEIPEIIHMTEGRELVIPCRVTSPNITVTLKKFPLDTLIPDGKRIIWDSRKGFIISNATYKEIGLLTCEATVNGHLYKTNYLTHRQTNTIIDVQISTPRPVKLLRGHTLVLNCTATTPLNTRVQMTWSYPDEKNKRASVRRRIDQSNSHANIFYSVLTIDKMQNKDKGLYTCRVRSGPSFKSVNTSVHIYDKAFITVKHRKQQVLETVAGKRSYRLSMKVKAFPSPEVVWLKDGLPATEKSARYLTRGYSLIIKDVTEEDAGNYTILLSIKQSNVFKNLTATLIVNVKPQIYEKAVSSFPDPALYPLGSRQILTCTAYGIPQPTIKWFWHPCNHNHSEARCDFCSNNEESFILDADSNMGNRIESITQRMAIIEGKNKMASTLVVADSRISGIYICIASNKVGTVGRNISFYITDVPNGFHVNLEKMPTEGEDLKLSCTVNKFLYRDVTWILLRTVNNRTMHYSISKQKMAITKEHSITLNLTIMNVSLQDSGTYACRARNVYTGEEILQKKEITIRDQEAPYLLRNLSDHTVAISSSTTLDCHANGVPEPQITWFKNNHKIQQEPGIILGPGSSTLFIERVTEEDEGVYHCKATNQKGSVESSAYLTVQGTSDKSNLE
Chain of eBRET2 VEGF biosensor Re06 (Rluc8 - VEGF receptor 2 domain 3 - GFP2) (human) (P35968 20-764): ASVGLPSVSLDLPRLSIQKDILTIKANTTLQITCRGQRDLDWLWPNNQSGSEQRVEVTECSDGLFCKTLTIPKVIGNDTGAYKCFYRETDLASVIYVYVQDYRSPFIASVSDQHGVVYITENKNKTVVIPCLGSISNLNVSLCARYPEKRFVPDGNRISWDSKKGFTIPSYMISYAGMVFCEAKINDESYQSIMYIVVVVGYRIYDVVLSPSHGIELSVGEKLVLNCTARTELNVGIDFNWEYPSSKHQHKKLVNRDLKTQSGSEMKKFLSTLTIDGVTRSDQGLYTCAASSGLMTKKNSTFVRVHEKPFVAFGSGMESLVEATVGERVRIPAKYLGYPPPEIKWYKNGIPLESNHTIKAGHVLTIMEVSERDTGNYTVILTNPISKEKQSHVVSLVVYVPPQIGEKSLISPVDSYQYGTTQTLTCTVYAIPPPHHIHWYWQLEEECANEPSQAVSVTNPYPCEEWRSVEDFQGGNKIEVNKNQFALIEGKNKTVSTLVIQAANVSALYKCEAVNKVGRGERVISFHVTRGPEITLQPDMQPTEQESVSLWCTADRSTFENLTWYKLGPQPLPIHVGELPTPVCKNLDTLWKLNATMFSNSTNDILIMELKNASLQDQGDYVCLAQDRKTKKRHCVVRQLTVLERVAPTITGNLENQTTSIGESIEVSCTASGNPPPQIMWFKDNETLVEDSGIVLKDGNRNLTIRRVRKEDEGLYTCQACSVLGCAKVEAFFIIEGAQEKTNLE
Chain of eBRET2 VEGF biosensor Re07 (Rluc8 - VEGF receptor 2 domains 2 and 3 - GFP2) (human) (P35968 20-764): as above

Regarding “recombinant human VEGF (Active Max VEGF-A165) (ligand)”, in assay [1], the Delta eBRET2 ratio (ΔBR) at 0.1 ng/ml VEGF, biosensor at 200,000 RLU worked out at 2.95 mBU and the Delta eBRET2 ratio (ΔBR) at 100 ng/ml VEGF, biosensor at 200,000 RLU was found to be 42.5 mBU. Also, in assay [2], the Delta eBRET2 ratio (ΔBR) at 1000 pg/ml VEGF, biosensor at 200,000 RLU was found to be 41 mBU and the maximum Delta eBRET2 ratio (ΔBR) at 1000 pg/ml VEGF, biosensor at 400,000 RLU is 106 mBU. Also, the maximum Delta eBRET2 ratio (ΔBR) at 4 ng/ml VEGF, biosensor at 400,000 RLU in assay [3] was 27.7 mBU. In assay [4], the maximum Delta eBRET2 ratio (ΔBR) at 1 μg/ml VEGF, biosensor at 200,000 RLU is 62.6 mBU and the maximum Delta eBRET2 ratio (ΔBR) at 1 μg/ml VEGF, biosensor at 800,000 RLU was 100 mBU.

The record behind these values is article PMC7098639.
